Assays:
[1] = target: T1, Har (Streptococcus pneumoniae, UniProt A0A0H2ZMK9); test: X-ray crystal structure, […] Å; assay type: binding; details: tag-cleaved Har; 2.4 M sodium malonate pH 7.0, 20 °C
T1 construct: gene SPD_1415; full length, 438 residues; E. coli BL21(DE3), pET28a; N-terminal 6-His tag kept for kinetics, cut by HRV-3C for crystals (4-residue scar); motif CXXXXC (C43, C48), K13, K16, H425, E430

[2] = target: hypothiocyanous acid reductase (Har) (Streptococcus pneumoniae); test: AUC; sedimentation velocity; Har at 2 uM and 20 uM in 20 mM Tris-HCl pH 8.0, 150 mM NaCl; 50,000 rpm, 20 °C; 2DSA and genetic algorithm analysis in UltraScan 4.0
[3] = system: N#CSO; test: purified protein; details: 200 μM NADH, 10 nM 6-His-tagged Har, 100 mM sodium phosphate pH 7, 25 °C, HOSCN 1-50 μM

With Cc1cc2nc3c(=O)[nH]c(=O)nc-3n(C[C@H](O)[C@H](O)[C@H](O)COP(=O)(O)OP(=O)(O)OC[C@H]3O[C@@H](n4cnc5c(N)ncnc54)[C@H](O)[C@@H]3O)c2cc1C [FAD] the “X-ray crystal structure, 1.50 Å” value [1] was “first crystal structure of full-length Har”.
“hypothiocyanous acid reductase (Har) (enzyme)” was tested, and the stoichiometry N [2] was 2.
Har (Streptococcus pneumoniae D39) showed a Km [3] of 3.8 ± 0.3 µM and a kcat [3] of 440 ± 10 s⁻¹.
